# In US20200179430A1, “USE OF P2Y1 RECEPTOR AND ANTAGONIST THEREOF IN PREVENTION AND TREATMENT OF DEPRESSION AND/OR ANXIETY DISORDER” (SOUTHERN MEDICAL UNIVERSITY, priority 2017, published 2020):
# “Also recorded” adds a separate entry of the source.
# Experiments:
# P2Y1 receptor [1] = target: T1, P2Y1 receptor (Mus musculus, UniProt P49650); assay: Forced swimming test (FST) in C57BL/6J mice; type: in vivo; details: for anti-depression like behavior (immobility time of swimming within the last 4 minutes): MRS2500 2.5 mg/kg intraperitoneally, FST 30 minutes later, 6 minutes; for immobility time of swimming: lateral ventricle administration, MRS2500 0.1 μM, MRS2179 0.2 μM, 1 μL, vs artificial cerebrospinal fluid control, FIG. 2; for immobility time during the forced swimming test: 0.5 μL shRNA adeno-associated virus at ventral tegmental area, 14 days after injection, vs control virus
# T1 construct: from tissue; host or cells: living C57BL/6J mice; brain (lateral ventricle administration, ventral tegmental area) or systemic (intraperitoneal)
# T1 sequence (P49650 whole entry): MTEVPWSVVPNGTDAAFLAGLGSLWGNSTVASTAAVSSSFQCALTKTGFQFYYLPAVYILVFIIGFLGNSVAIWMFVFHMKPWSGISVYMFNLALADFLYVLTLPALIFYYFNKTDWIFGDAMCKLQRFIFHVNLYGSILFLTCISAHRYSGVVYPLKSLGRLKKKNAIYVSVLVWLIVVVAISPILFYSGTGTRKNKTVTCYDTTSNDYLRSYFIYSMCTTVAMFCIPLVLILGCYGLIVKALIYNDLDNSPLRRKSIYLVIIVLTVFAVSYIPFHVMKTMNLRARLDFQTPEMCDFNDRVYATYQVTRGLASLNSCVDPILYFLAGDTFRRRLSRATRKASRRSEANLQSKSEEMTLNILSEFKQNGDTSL
# Procedure: Forced swimming test which was proposed by Porsolt in 1977 was applied to the rats at the earliest, and subsequently extended to the mice. The forced swimming test is used to screening for antidepressants which are found to decrease immobility time of the forced swimming mice, and such model is one of the most common-used models for screening for antidepressants at present. The test steps are as follows: experimental mice adapted in an ethology laboratory for at least 60 minutes in advance, and the following test was carried out: an individual mouse was put in a cylinder glass jar (height: 45 cm; diameter: 19 cm) with a water depth of 23 cm at water temperature of 22° C.-25° C., and was subjected to the forced swimming for 6 minutes. Accumulative immobility time within the last 4 minutes was recorded (mainly behaves as stopping struggling, floating upright, or having only small limb movements to keep the head emerge from the water) as an index of tested depression-like behavior. Effect of the antidepressant can shorten the immobility time of the experimental mice.
# Experimental animals: C57BL/6J mice, grade SPF, male, body weight of 20 to 24 g. The animals were provided by the Laboratory Animal Center of Southern Medical University (Guangzhou, China). The mice were put in the SPF grade animal feeding room for feeding in separate cages, with 3 to 4 mice in each cage. The plastic cage has a size of 300 mm×170 mm×120 mm. Room temperature: 24±1° C., light-dark cycle: 12 hours/12 hours, illumination time: 7:00 a.m. to 7:00 p.m., relative humidity: 70% to 85%. The indoor environment was kept quiet and the mice could eat and drink freely. The tests were carried out at 1:00 to 5:00 in the afternoon. Before the test, the mice entered the experimental environment in advance for adaptation and were touched by the experimental personnel for adaptation.
# In the forced swimming test of the C57BL/6J mice, the animals were divided into 5 groups randomly with 10 mice in each group. The animals in each group were surgically implanted with a medical perfusion tube at the lateral ventricle and fed for seven days for recovery. Then, four groups of animals were subjected to the following treatment respectively: by using a microdose drug delivery system, administering the corresponding reagent: a control solution (artificial cerebrospinal fluid, 1 μL, 1 μL/min), MRS2500 (0.1 μM, 1 μL, 1 μL/min), MRS2179 (0.2 μM, 1 μL, 1 μL/min). After the injection for each group was completed, the forced swimming test was carried out 10 minutes later.
# 2.5 mg/kg MRS2500 was intraperitoneally administered to the mice, and 30 minutes later, the mice were subjected to the forced swimming test for 6 minutes. Immobility time of swimming within the last 4 minutes was determined to evaluate the effect of the antidepressant.
# Test method: the animal in each group was micro-injected with 0.5 μL of interfering RNA adeno-associated virus (shRNA) at the ventral tegmental area (angle: 7°, AP: −3.2 mm, ML: 1.0 mm, DV: −4.6 mm) (0.1 μL/min, remaining the needle for 5 minutes after injection), fed for 14 days and subjected to a forced swimming test after the expression recovery of virus. Titer of the P2Y1 specific-interfering shRNA is 1×10^13 v.g/ml, 9.55E+08 copy/μL. Adeno-associated virus type 9 was used to package the virus, with the promoter being U6 and the serotype being AAV9 (packaged by Biowit Company, Shenzhen, China). Sequence information: the forward sequence is shown as SEQ ID NO:1; and the reverse sequence is shown as SEQ ID NO:2.
# P2Y1 receptor [2] = target: T1, P2Y1 receptor; assay: Chronic social defeat stress model, social interaction test; type: in vivo, mice; details: for duration at the interaction area, social interaction test: chronic social defeat stress depressed mice, 14 days after injection of shRNA virus, FIG. 9
# Procedure: The chronic social defeat stress model was carried out referring to the Golden method.
# The C57BL/6J mice were randomly divided into a control group and a stress group. The C57BL/6J mouse in the stress group was daily put in a cage with a screened CD-1 mouse therein, for 10-minute body contact. As an invader, the C57BL/6J mouse behaved as escape, fear, obedience and the like after being attacked. After the contact, within the 24 hours after they were separated by a transparent and perforate partition, the C57BL/6J mouse could smell, see and hear the CD-1 mouse at the opposite side for mental stress. The C57BL/6J mice took turns daily to guarantee to be subjected to even stress. The test was continued for ten days. The CD-1 mouse in the control group was replaced by another C57BL/6J mouse, and took turns daily, but body contact was avoided. After modeling, the mice were fed in separate cages and were subjected to tube-implant surgery at the lateral ventricle. The control group and the test group were administered the corresponding reagent respectively: a control solution (artificial cerebrospinal fluid, 1 μL, 1 μL/min), MRS2500 (0.1 μM, 1 μL, 1 μL/min). After administration, depression level of the mice was tested by a social interaction test. The social interaction test was divided into two stages, 2.5 minutes for each stage. First stage (no target): the CD-1 mouse was not put in a transparent and perforate organic glass box; the C57BL/6J mice were put at the distal side, and dwell durations thereof at the interaction area and at the corner within 2.5 minutes were recorded. Second stage (target): the CD-1 mouse was put in the transparent and perforate organic glass box; the C57BL/6J mice were put at the distal side, and dwell durations thereof at the interaction area and at the corner within 2.5 minutes were recorded.
# Experimental animals: C57BL/6J mice, grade SPF, male, body weight of 20 to 24 g. The animals were provided by the Laboratory Animal Center of Southern Medical University (Guangzhou, China). […]
# P2Y1 receptor [3] = target: T1, P2Y1 receptor; assay: Forced swimming test of mice modeled by chronic social defeat stress model; type: in vivo; details: chronic social defeat stress depressed mice, 14 days after injection of shRNA virus, FIG. 10
# Procedure: Forced swimming test which was proposed by Porsolt in 1977 was applied to the rats at the earliest, and subsequently extended to the mice. The forced swimming test is used to screening for antidepressants which are found to decrease immobility time of the forced swimming mice, and such model is one of the most common-used models for screening for antidepressants at present. […] Accumulative immobility time within the last 4 minutes was recorded (mainly behaves as stopping struggling, floating upright, or having only small limb movements to keep the head emerge from the water) as an index of tested depression-like behavior. […]
# The C57BL/6J mice were randomly divided into a control group and a stress group. […] First stage (no target): the CD-1 mouse was not put in a transparent and perforate organic glass box; the C57BL/6J mice were put at the distal side, and dwell durations thereof at the interaction area and at the corner within 2.5 minutes were recorded. Second stage (target): the CD-1 mouse was put in the transparent and perforate organic glass box; the C57BL/6J mice were put at the distal side, and dwell durations thereof at the interaction area and at the corner within 2.5 minutes were recorded. […]
# P2Y1 receptor [4] = target: T1, P2Y1 receptor; assay: Sucrose preference test of mice modeled by chronic social defeat stress model; type: in vivo; details: chronic social defeat stress depressed mice; 14 days after injection of shRNA virus; FIG. 11
# P2Y1 receptor [5] = assay: Expression of P2Y1 receptor after intracerebral injection of interfering RNA adeno-associated virus; type: in vivo; details: mice injected at ventral tegmental area; vs control group mice
# Procedure: In order to further verify whether the P2Y1 receptor can be used as a target of anti-depression and/or anti-anxiety, and to avoid the compensatory effect that may exist in the conventional knockout mice, P2Y1 receptor specifically-interfering adeno-associated virus was prepared in the present invention to be observed whether the virus affects the depression-like behavior. The mice were intracerebrally injected with a trace amount of the P2Y1 receptor-interfering RNA adeno-associated virus at the ventral tegmental area, and then a forced swimming test was carried out. […] The inventors further used a depression model, chronic social defeat stress model to verify the effect of the P2Y1 receptor specifically-interfering adeno-associated virus. After modeling of the depression model was completed, the mice took a day off, and then were administered the P2Y1 receptor specifically-interfering adeno-associated virus, and two weeks later the mice were subjected to a behavior test. […] In the sucrose preference test, a decreased sucrose preference of the social failure depressed mice was reversed (as shown in FIG. 11). […]
# [6] = listed as P2Y1 receptor specifically-interfering adeno-associated virus
molecule,measurement,setting,value
CNCCC(Oc1ccc(C(F)(F)F)cc1)c1ccccc1 (stereo not shown) [Fluoxetine],anti-depression like behavior (immobility time of swimming within the last 4 minutes),P2Y1 receptor [1]; FIG. 1,anti-depression like behavior
CNc1ncnc2c1ncn2[C@H]1C[C@H](OP(=O)(O)O)[C@@H](COP(=O)(O)O)O1 [MRS2179],immobility time of swimming,P2Y1 receptor [1],significantly reduce the immobility time; also recorded: significantly shorten the immobility time of swimming
CNc1nc(I)nc2c1ncn2[C@H]1C[C@H](OP(=O)(O)O)[C@]2(COP(=O)(O)O)C[C@H]12 [MRS2500],dwell duration at the interaction area (depressive situation),"P2Y1 receptor [2]; chronic social defeat stress C57BL/6J mice, single dose MRS2500 0.1 μM, 1 μL, lateral ventricle, FIG. 3",significantly improved; also recorded: can improve the dwell duration at the interaction area
same,anti-depression like behavior (immobility time of swimming within the last 4 minutes),"P2Y1 receptor [1]; FIG. 1, 2.5 mg/kg",shows the same anti-depression like behavior as administration of the conventional antidepressant Fluoxetine
same,immobility time of swimming,P2Y1 receptor [1],significantly reduce the immobility time; also recorded: significantly shorten the immobility time of swimming
"P2Y1-shRNA: P2Y1 specific-interfering shRNA packaged in adeno-associated virus type 9, U6 promoter; sequences SEQ ID NO:1 and SEQ ID NO:2 (nucleic acid) chain 1: GATCCCCAGCCCTCATCTTCTACTACTTCATTCAAGAGATGAAGTAGTAGAAGATGAGGGCTGGTTTTTTAGATCTA chain 2: AGCTTAGATCTAAAAAACCAGCCCTCATCTTCTACTACTTCATCTCTTGAATGAAGTAGTAGAAGATGAGGGCTGGG","duration at the interaction area, social interaction test",P2Y1 receptor [2],enhance the duration at the interaction area
same,"duration at the interaction area, social interaction test",P2Y1 receptor [2]; [6],situation of the social defeat depressed mice was reversed
same,"immobility time, forced swimming test",P2Y1 receptor [3],reduce the increased immobility time
same,"immobility time, forced swimming test",P2Y1 receptor [3]; [6],returned to the level of the control group
same,immobility time during the forced swimming test,P2Y1 receptor [1]; FIG. 8,significantly reduced immobility time
same,immobility time during the forced swimming test,"P2Y1 receptor [1]; FIG. 8, listed as P2Y1 receptor-interfering RNA",obviously decreased immobility time
same,sucrose preference,P2Y1 receptor [4],enhance the decreased sucrose preference
same,expression of P2Y1 receptor,P2Y1 receptor [5],significantly decreased the expression of P2Y1 receptor
